Assay [1] deals with T1, human TRPV1 (transient receptor potential vanilloid type 1) (human, UniProt Q8NER1 1-839).
T1 construct: ion channel expressed from a tetracycline regulated system (T-REx) in adherent CHO cells, induced with doxycycline; also called hTRPV1
The assay is described as follows: FACS on CHO cells with induced hTRPV1 expression. The method, then: For monoclonal antibody preparations, CHO-TRPV1 cells were incubated with 50 μl antibody preparation (serum, hybridoma supernatant or purified monoclonal antibody) for 30 min at 4° C., followed by 30 min incubation at 4° C. with 50 µl secondary antibody (anti-mouse IgG, conjugated to fluorescent probe). The negative control was secondary antibody only (anti-mouse IgG at […] in the 50 µL sample). Binding was assessed by measurement of fluorescence signal from cells and reported as mean fluorescence intensity (MFI). CHO-TRPV1 cells are adherent Chinese hamster ovary (CHO) cells with a tetracycline regulated expression system (T-REx) of hTRPV1 (human TRPV1) as described elsewhere. Doxycycline was used to induce expression of TRPV1 (denoted +TRPV1). Non-induced cells are denoted –TRPV1.
Three examples of mouse monoclonal antibodies against human TRPV1, OT-Ab1, OT-Ab2 and OT-Ab3, were produced using the hybridoma technology. Specificity of binding to hTRPV1 was determined using FACS, employing a CHO cell line with inducible hTRPV1 expression. OT-Ab1, OT-Ab2 and OT-Ab3 bound to hTRPV1-expressing cells but not to non-hTRPV1-expressing cells indicating strongly specific binding to hTRPV1 (FIG. 5).

Assay [2] has as its target T1, human TRPV1 (transient receptor …). The assay can be described thus: cell-based or functional assay.
For assay [3] the target is unchanged. The assay is described as follows: FACS on CHO TRPV1 cells, purified antibody. The method, then:
For monoclonal antibody preparations for FACS analysis, CHO TRPV1 cells, HEK 293 cells or CHO S cells were incubated with 50 μl antibody preparation (serum, hybridoma supernatant or purified monoclonal antibody or control) for 40 min at room temperature, followed by 30 min incubation at room temperature with 100 μl secondary antibody (anti-mouse IgG, conjugated to fluorescent probe). Binding was assessed by measurement of fluorescence signal from cells and reported as mean fluorescence intensity (MFI). CHO TRPV1 cells are adherent Chinese hamster ovary (CHO) cells with a tetracycline regulated expression system (T-REx) of hTRPV1 (human TRPV1) as described elsewhere. Doxycycline was used to induce expression of TRPV1. CHO S cells and HEK 293 cells were used as negative control cells. CHO S cells are a high-density suspension-adapted cell type used as a tool for high level expression of recombinant protein, with little or no basal expression of TRPV1. […]
In the study described in the present example, 16 mouse monoclonal antibodies against human TRPV1, 32C8-1, 33C9-1, 34C11-1, 40B10-1, 41B5-1, 43D6-1, 44E8-1, 46B7-1, 46D9-1, 12C9-1, 12G6-1, 15D8-1, 16F1-1, 17E11-1, 17E9-1, 18E10-1, were produced using the hybridoma technology. Specificity of binding to hTRPV1 was determined using FACS, employing a CHO cell line with inducible hTRPV1 expression. […]

Residue numbers refer to the chain shown, from its start.

T1 sequence (Q8NER1 whole entry): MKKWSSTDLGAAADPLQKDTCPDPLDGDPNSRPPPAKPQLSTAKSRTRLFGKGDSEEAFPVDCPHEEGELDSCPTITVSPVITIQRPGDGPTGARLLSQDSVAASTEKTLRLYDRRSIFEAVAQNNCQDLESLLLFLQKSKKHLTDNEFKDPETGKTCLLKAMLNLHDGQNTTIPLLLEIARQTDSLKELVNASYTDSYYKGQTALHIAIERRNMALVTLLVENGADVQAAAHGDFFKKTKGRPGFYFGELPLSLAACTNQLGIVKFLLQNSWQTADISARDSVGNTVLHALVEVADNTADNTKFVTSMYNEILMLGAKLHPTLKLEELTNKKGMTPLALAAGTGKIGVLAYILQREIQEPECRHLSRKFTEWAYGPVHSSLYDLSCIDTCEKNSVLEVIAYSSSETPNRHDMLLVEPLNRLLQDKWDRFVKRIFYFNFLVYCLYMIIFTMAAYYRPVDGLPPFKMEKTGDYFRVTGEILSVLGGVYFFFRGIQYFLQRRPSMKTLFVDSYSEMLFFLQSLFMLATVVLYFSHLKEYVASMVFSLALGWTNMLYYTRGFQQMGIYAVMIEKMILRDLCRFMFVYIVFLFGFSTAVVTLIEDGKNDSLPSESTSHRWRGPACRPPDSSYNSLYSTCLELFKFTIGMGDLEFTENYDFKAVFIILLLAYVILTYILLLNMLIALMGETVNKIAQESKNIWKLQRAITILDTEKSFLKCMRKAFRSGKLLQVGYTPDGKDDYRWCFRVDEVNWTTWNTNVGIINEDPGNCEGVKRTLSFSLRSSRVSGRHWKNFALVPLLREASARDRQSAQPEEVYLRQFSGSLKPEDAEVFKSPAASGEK

B1: OT-Ab1 (antibody, IgG2b, V domains shown)
VH: EVQLQQSGAELVKPGASVKLSCTASGFNIKDTYIHWVKQRPEQGLEWIGRIDPANGNTRYDPKFQGKATITADTSSNTAYLQLSSLTSEDTAVYYCAKVSGDRRFYWYFDVWGAGTTVTVSS
VL: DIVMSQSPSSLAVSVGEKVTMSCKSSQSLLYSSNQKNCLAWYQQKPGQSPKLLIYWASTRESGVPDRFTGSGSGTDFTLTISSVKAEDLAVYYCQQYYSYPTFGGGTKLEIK
notes: mouse monoclonal, IgG2b/kappa
Consider B1, for which, in assay [1], the binding result is “binds”.

B2: OT-Ab2 (antibody, IgG1, V domains shown)
VH: EVKLLESGGGLVQPGGSLKLSCAASGFDFRRYWMSWVRQAPGKGLEWIGEINPDSSTINYTPSLKDEFIISRDNAKNTLYLQMSKVRSEDTVLYYCSRGGDYWGQGTSVTVSS
VL: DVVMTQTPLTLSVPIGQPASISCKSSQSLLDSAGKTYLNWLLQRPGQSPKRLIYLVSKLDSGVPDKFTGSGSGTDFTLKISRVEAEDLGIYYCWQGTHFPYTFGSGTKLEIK
notes: mouse monoclonal, IgG1/kappa
Turning to B2, in assay [1], the binding result was “binds”.

B3: OT-Ab3 (antibody, IgG1, V domains shown)
VH: B2 VH with K3N
VL: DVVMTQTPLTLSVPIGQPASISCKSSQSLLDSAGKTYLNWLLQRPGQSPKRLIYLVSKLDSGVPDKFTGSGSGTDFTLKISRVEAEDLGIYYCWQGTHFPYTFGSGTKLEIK
notes: mouse monoclonal, IgG1/kappa
As to B3, the binding result in assay [1] is reported as “binds”.

B4: 41B5-1 (antibody, V domains shown)
VH: DVQLQESGPGLVKPSQSLSLTCTVTDYSLTSDYAWNWIRQFPGNKLEWMGYITYSGYTNFNPSLRSRISITRDTSKTQFFLQLNSVTAEDTATYYCVRSTTYFDYWGQGTTLTVSS
VL: DVLMTQTPLSLPVSLGDQASISCRSSQSIVHSDGNTYLEWYLQKPGQSPKLLIYKVSNRFSGVPDRFSGSGSGTDFTLKINRVEAEDLGIYYCFQGSHVPPTFGGGTKLEIK
For the molecule B4, the “IC50 of inhibition of TRPV1-mediated capsaicin-induced Ca2+ uptake (FLIPR)” value (“IC50 of inhibition … (FLIPR)” below) in assay [2] is roughly 170 nM.

B5: 12G6-1 (antibody, IgG1, V domains shown)
VH: EVQLVESGGDLVNPGGSLKLSCAASGFTISNYGMSWVRQTPDKRLEWVAIIIRDGGYTYYPDSVKGRFTISRDSAKNTLYLQMSSLKSEDTAMYYCARHEYYFDFWGQGTTLTVSS
VL: B4 VL with S28T, V30L, N81S, I90V, F94S, V99F, L109V
notes: mouse monoclonal, IgG1/kappa
On to B5, for which the binding result in assay [3] is recorded as “binds”.

B6: 46B7-1 (antibody, V domains shown)
VH: B4 VH with F60Y, R65K, I68V, A88T, V97A, T101A
VL: B4 VL with I29V, V30I, N81S, I90V
Regarding B6, the “IC50 of inhibition … (FLIPR)” value in assay [2] is roughly 200 nM.

B7: 12C9-1 (antibody, IgG2b, V domains shown)
VH: EVQLQQSGPELVKPGTSVKISCKASGYTFTGYYMNWVKQSHGKSLEWIGDINPNNGGTDYNRKFKGKATLTVDKSSSTAYMEVRSLTSEDSAVYYCAKDFAVWGTGTTVTVSS
VL: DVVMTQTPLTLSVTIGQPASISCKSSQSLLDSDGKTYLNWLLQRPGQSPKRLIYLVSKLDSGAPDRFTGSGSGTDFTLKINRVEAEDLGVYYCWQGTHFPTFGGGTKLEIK
notes: mouse monoclonal, IgG2b/kappa
With B7, the binding result in assay [3] was “binds”.

B8: 17E11-1 (antibody, IgG1, V domains shown)
VH: EVQLLQSVAELVRPGASVKLSCTASGFNIKNTFIHWLKQRPEQGLEWIGKIDPANGNIRCAPKFQGKATITADTSSNTAYLQLSSLTSGDTAIYYCGRGTMLVGHFYWYFDVWGTGTTVTVSS
VL: DIVMSQSPSSLAVSVGEKITMSCKSSQSLLYSSNQKNYLAWYQQKPGQSPKLLIYWASTRESGVPDRFSGSGSGTDFTLTISSVKTEDLAIFYCQQYYYYPPTFGAGTKLELR
As to B8, the “IC50 of inhibition … (FLIPR)” value in assay [2] was roughly 230 nM.

B9: 17E9-1 (antibody, IgG2b, V domains shown)
VH: B8 VH
VL: B8 VL
B9: the “IC50 of inhibition … (FLIPR)” value in assay [2] was roughly 400 nM.

B10: 15D8-1 (antibody, V domains shown)
VH: DVQLVESGGGLVQPGGSRKLSCAASGFTFSSFGMHWVRQAPEKGLEWVAYISSGSSTIYYADTVKGRFTISRDNPKNTLFLQMTSLRSEDTAMYYCARRGNAMDYWGQGTSVTVSS
VL: NIMMTQSPSSLAVSAGEKVTMSCKSSQSVLYSSNQKNYLAWYQQKPGQSPKLLIYWASTRESGVPDRFTGSGSGTDFTLTISSVQAEDLAVYYCHQYFSSWTFGGGTKLEIK
For the molecule B10, in assay [2], the “IC50 of inhibition … (FLIPR)” value was roughly 70 nM.

B11: 16F1-1 (antibody, IgG2a, V domains shown)
VH: EVQLVESGGGLVQPKGSLKLSCAASGFTFNTYAMHWVRQAPGKGLEWVARIRSKSSNYATYYADSVKDRFTISRDDSQSMVYLQMNNLKTEDTAMYYCVRKGDGYDGWFAYWGQGTLVTVSA
VL: DIQMTQSPASLSASVGETVTITCRPSGNIHNYLVWYQQKQGKSPQVLVYNSKTLADGVPSRFSGSGSGTQYSLKINSLQPEDFGTYYCQHFWSTPLTFGAGTKLELK
On to B11, for which the “IC50 of inhibition … (FLIPR)” value in assay [2] was roughly 215 nM.

The values are drawn from patent publication US12590147 (OBLIQUE THERAPEUTICS, dated 2026).
